Results reported in paper PMC5522039, “Non-invasive assessment of murine PD-L1 levels in syngeneic tumor models by nuclear imaging with nanobody tracers” (Oncotarget, 2017).

biological target: T1, His-tagged recombinant mouse PD-L1 protein (Mus musculus, UniProt Q9EP73); test: not given; conditions: not given
T1 sequence (Q9EP73 19-239): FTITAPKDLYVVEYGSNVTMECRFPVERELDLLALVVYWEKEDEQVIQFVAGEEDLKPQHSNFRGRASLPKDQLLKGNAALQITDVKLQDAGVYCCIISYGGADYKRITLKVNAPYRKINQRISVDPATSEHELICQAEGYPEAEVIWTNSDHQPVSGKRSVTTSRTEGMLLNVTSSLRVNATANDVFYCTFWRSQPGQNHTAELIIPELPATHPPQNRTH

binding result | Binder
binds | H1 (VHH) VHH: QVQLQESGGGLVQAGGSLRLSCAASGRTFSSRGMGWFRQAPGKEREFVAAISWGGGTTYYADSVKGRFTISRDNAKNTVYLQMNSLKPEDTAVYYCAAHTGFPHEYDYWGQGTQVTVSS
binds | F1 (VHH) VHH: QVQLQESGGGLVQAGGSLRLSCTASRTTSSINIMAWYRQAPGKRRELVALSIRGGNTHYADSVKGRFTISGVHANNTVYLQMNSLKPEDTAVYYCNTGGYWGQGTQVTVSS

biological target: T1, His-tagged recombinant mouse PD-L1 …; test: SPR; His-tagged mouse or human PD-L1 immobilised on a CM5 chip (EDC/NHS, between 650 and 900 RU); purified Nbs, 9 dilutions, 120 sec binding, 160 sec dissociation; Biacore T200, 25°C, HBS (0.01 M HEPES pH 7.4, 0.15 M NaCl, 3 mM EDTA, 0.005% Tween 20); 1-to-1 fit; n = 1; conditions: both partners purified

Kd | Binder
17 nM | Nb C7 (VHH, Nanobody from a dromedary immunised with RAW264.7 cells; recloned into pHEN6 for the C-terminal His6 tag; also called anti-PD-L1 Nb C7; source: E. coli fermentation cultures, purified; not shown: His6, C-terminal, kept) VHH: QVQLQESGGGSVQAGESLTLSCTASGSSLSHKSVGWWRQTPGNQRELVALVASGNNTNYVDSVKGRFTVSRDNAKNTMYLQMNSLKPEDTAVYYCRILSVNGIWYWGQGTQVTVSS
2.1 nM | Nb E2 (VHH, Nanobody from a dromedary immunised with RAW264.7 cells; recloned into pHEN6 for the C-terminal His6 tag; also called anti-PD-L1 Nb E2; source: E. coli fermentation cultures, purified; not shown: His6, C-terminal, kept) VHH: QVQLQESGGGLVQAGGSLRLSCATSGSIFSIISMGWYRQAPGKQRELVALVFRGGSTVYADSVKGRFTISGDIAKNTVYLQMDSLKPEDTAVYYCNVKSIGTAQYWGQGTQITVSS
4 nM | Nb E4 (VHH, Nanobody from a dromedary immunised with RAW264.7 cells; recloned into pHEN6 for the C-terminal His6 tag; also called anti-PD-L1 Nb E4; source: E. coli fermentation cultures, purified; not shown: His6, C-terminal, kept) VHH: QVQLQESGGGLVHPGGSLRLSCATSGSIFSIISMGWYRQAPGKQRELVALVFRGGSTVYADSVKGRFTISGDIAKSTVYLQMDSLKPEDTAVYYCNAKPIGTAQYWGQGTQVTVSS
0.5 nM | Nb C3 (VHH, Nanobody from a dromedary immunised with RAW264.7 cells; recloned into pHEN6 for the C-terminal His6 tag; also called anti-PD-L1 Nb C3; source: E. coli fermentation cultures, purified; not shown: His6, C-terminal, kept) VHH: QVQLQESGGGLVQTGGSLRLSCAASGSTVSSSMMAWWRQTPGNQRELVALVASGNNTNYVDSVKGRFTVSRDNAKNTMYLQMNSLKPEDTAVYYCRILSVNGIWYWGQGTQVTVSS
